{"source": "patent US20240199757A1", "about": "(UNIVERSITY OF CHICAGO, published 2024)", "key": {"[1]": {"target": "T1, human NT5E expressed on MDA-MB-231 cells (human, UniProt P21589 27-549)", "T1 construct": "whole, on cells; also called NT5E-expressing MDA-MB-231 cells; CD73", "T1 sequence (looked up)": "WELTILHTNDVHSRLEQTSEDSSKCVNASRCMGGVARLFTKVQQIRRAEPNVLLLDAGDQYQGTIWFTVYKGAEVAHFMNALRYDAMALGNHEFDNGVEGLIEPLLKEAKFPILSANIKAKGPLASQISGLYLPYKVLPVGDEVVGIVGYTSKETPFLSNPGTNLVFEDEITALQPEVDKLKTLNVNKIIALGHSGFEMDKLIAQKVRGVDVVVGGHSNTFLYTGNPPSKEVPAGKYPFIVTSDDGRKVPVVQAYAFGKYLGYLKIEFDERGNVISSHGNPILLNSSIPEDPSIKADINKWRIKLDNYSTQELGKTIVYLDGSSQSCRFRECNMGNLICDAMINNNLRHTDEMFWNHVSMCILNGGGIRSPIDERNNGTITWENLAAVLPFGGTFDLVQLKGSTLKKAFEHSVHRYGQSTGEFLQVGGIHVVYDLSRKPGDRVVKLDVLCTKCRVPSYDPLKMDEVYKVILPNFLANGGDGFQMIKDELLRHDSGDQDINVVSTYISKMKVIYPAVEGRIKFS", "experiment": "flow cytometry on MDA-MB-231 cells, 1 mM ATP", "method": "(§1) Flow cytometry analysis of antibodies binding to human NT5E expressed on MDA-MB-231 cells in ATP-free condition (black) or in 1 mM ATP (red). Top panel: (left) 1780 Fab and (right) 1780 IgG titrations. […] Binding was measured at the indicated range of antibody concentrations and is expressed as mean±st. dev of median fluorescence intensity (MFI) of 1-2 replicates. Data were analyzed using OriginLab, and EC₅₀ values are shown next to the fitted curves.\n(§2) Human MDA-MB-231 cells and murine 4T1 cells were grown to 90% confluency, detached with 5 mM EDTA for 15 min at 37° C. and then resuspended in 37° C. lx PBS (#10010031, Gibco) supplemented with 1% FBS and 1OpM ZnCl2. Separate working buffers (WB) of PBS and 1% FBS with or without fixed nucleotide concentrations were used throughout all washing steps to maintain constant condition. In 96-well plates (#3799, Costar), 0.2×10⁶ cells were added per well. The plates were spun at 500×g for 5 min and the supernatant was removed. Anti-NT5E antibodies were diluted to the desired concentration in 100 μL WB, added to the cells and the plates were incubated for 20 min at 37° C. Plates were spun and cells were washed twice with WB then spun a second time. Cells were stained with 100 μL of secondary antibody (Alexa Fluor 647 AffiniPure Goat Anti-Human IgG, F(ab′)2 fragment specific, #109-605-006, Jackson, 1:200) dilution and plates were incubated for 20 min at 37° C. Cells were washed twice with WB then fixed on ice with WB supplemented with 0.5% PFA. Fixing solution was removed by centrifugation and cells were resuspended in cold 1× PBS. Samples were analyzed by flow cytometry using CytoFLEX (Beckman Coulter) and mean fluorescence intensity (MFI) data was extracted using FlowJo software. Resulting binding data was plotted using OriginLab."}, "[2]": {"target": "T1, human NT5E expressed on MDA-MB-231 cells", "experiment": "flow cytometry on MDA-MB-231 cells, 1 mM ATP", "method": "as §1, §2", "remark": "listed apart in the source"}, "[3]": {"target": "T2, murine NT5E expressed on 4T1 cells (murine, UniProt Q61503 29-551)", "T2 construct": "whole, on cells; also called mouse NT5E-expressing 4T1 cells", "T2 sequence (looked up)": "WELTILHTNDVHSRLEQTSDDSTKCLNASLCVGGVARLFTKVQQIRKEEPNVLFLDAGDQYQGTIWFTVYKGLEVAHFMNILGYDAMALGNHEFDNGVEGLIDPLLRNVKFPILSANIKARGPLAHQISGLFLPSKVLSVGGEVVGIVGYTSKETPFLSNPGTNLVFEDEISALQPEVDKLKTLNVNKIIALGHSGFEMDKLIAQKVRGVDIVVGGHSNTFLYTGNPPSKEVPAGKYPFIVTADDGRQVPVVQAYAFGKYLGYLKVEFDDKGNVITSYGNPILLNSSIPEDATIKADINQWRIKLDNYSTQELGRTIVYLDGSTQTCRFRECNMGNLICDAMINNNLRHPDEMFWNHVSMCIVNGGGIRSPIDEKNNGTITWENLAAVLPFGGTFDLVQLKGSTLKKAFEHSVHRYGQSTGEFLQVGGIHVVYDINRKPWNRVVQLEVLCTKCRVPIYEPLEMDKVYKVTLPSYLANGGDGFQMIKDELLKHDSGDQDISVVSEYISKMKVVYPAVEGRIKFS", "experiment": "flow cytometry on 4T1 cells, single Fab concentration, -ATP", "method": "as §2"}}, "note": "Read-outs that look alike come from different tables or passages of the source."}
{"binder": "1780 Fab (Fab, V domains shown) VH: EVQLVESGGGLVQPGGSLRLSCAASGFNFYSYSIHWVRQAPGKGLEWVASISSSSGYTYYADSVKGRFTISADTSKNTAYLQMNSLRAEDTAVYYCARYSWWGWHMEGWWGYMNAFDYWGQGTLVTV VL: DIQMTQSPSSLSASVGDRVTITCRASQSVSSAVAWYQQKPGKAPKLLIYSASSLYSGVPSRFSGSRSGTDFTLTISSLQPEDFATYYCQQAHPKPITFGQGTKVEIKR", "values": [{"measurement": "EC50", "setting": "[1]", "result": 37, "unit": "nM"}, {"measurement": "EC50", "setting": "[2]", "result": 40.8, "unit": "nM"}, {"measurement": "binding result", "setting": "[3]", "result": "no binding (tested: 200 nM)"}]}
